# Tests used:
# [1] = biological target: the molecule itself; test: single-molecule pull-down (SiMPull); one-colour SiMPull with photobleaching step analysis: HA-Halo-tagged protein labelled on HEK293 cells with membrane-impermeable CA-Sulfo646, lysed in 0.5% LMNG/0.05% CHS, immobilised by biotinylated anti-HA antibody on a PEG-passivated slide, TIRF imaging
# [2] = biological target: T1, HA-Halo-MC3R (melanocortin-3 receptor) (human, UniProt P41968 1-323, CA-Sulfo646 dye on the Halo tag); test: single-molecule pull-down (SiMPull); two-colour SiMPull: HA-Halo-tagged bait (CA-Sulfo646) and FLAG-CLIP-tagged prey (BC-DY547) co-expressed in HEK293 cells (300 ng Halo and 600 ng CLIP plasmid), labelled before lysis in 0.5% LMNG/0.05% CHS, bait immobilised by biotinylated anti-HA antibody, co-localisation and photobleaching steps by TIRF; conditions: partners not purified
# T1 construct: human melanocortin-3 receptor (MC3R); pRK5 construct with an N-terminal signal peptide from rat mGluR2 before the HA and Halo tags; also called ss-HA-Halo-MC3R; source: HEK293, transiently transfected, in lysate (LMNG-CHS); not shown: HA, N-terminal, kept; Halo, N-terminal, kept
# T1 sequence (P41968 whole entry): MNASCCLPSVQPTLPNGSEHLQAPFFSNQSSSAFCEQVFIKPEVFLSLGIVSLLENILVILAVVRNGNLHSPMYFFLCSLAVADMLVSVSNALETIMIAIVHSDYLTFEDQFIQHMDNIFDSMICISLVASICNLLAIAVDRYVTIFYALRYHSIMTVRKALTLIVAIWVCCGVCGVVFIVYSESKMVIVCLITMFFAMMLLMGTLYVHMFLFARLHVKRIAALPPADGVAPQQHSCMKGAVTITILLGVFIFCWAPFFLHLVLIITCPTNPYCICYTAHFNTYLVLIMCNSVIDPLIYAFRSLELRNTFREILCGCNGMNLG
Binder,stoichiometry N [1],stoichiometry N [2] [MRAP2 per MC3R]
"mGluR2 (receptor, UniProt P31421 19-872, looked up, metabotropic glutamate receptor 2 (mGluR2), control of the SiMPull photobleaching analysis; also called known dimeric GPCR mGluR2; source: HEK293, transfected, in lysate) EGPAKKVLTLEGDLVLGGLFPVHQKGGPAEECGPVNEHRGIQRLEAMLFALDRINRDPHLLPGVRLGAHILDSCSKDTHALEQALDFVRASLSRGADGSRHICPDGSYATHSDAPTAVTGVIGGSYSDVSIQVANLLRLFQIPQISYASTSAKLSDKSRYDYFARTVPPDFFQAKAMAEILRFFNWTYVSTVASEGDYGETGIEAFELEARARNICVATSEKVGRAMSRAAFEGVVRALLQKPSARVAVLFTRSEDARELLAATQRLNASFTWVASDGWGALESVVAGSERAAEGAITIELASYPISDFASYFQSLDPWNNSRNPWFREFWEERFHCSFRQRDCAAHSLRAVPFEQESKIMFVVNAVYAMAHALHNMHRALCPNTTHLCDAMRPVNGRRLYKDFVLNVKFDAPFRPADTDDEVRFDRFGDGIGRYNIFTYLRAGSGRYRYQKVGYWAEGLTLDTSFIPWASPSAGPLPASRCSEPCLQNEVKSVQPGEVCCWLCIPCQPYEYRLDEFTCADCGLGYWPNASLTGCFELPQEYIRWGDAWAVGPVTIACLGALATLFVLGVFVRHNATPVVKASGRELCYILLGGVFLCYCMTFVFIAKPSTAVCTLRRLGLGTAFSVCYSALLTKTNRIARIFGGAREGAQRPRFISPASQVAICLALISGQLLIVAAWLVVEAPGTGKETAPERREVVTLRCNHRDASMLGSLAYNVLLIALCTLYAFKTRKCPENFNEAKFIGFTMYTTCIIWLAFLPIFYVTSSDYRVQTTTMCVSVSLSGSVVLGCLFAPKLHIILFQPQKNVVSHRAPTSRFGSAAPRASANLGQGSGSQFVPTVCNGREVVDSTTSSL",2,
"FLAG-CLIP-MRAP2 (melanocortin-2 receptor accessory protein-2) (natural protein, human, UniProt Q96G30 1-205, looked up, BC-DY547 dye on the CLIP tag, human melanocortin-2 receptor accessory protein 2 (MRAP2); pRK5 construct with an N-terminal signal peptide from rat mGluR2 before the tags; also called ss-FLAG-CLIP-MRAP2; source: HEK293, transiently transfected, in lysate (LMNG-CHS); not shown: FLAG, N-terminal, kept; CLIP, N-terminal, kept) MSAQRLISNRTSQQSASNSDYTWEYEYYEIGPVSFEGLKAHKYSIVIGFWVGLAVFVIFMFFVLTLLTKTGAPHQDNAESSEKRFRMNSFVSDFGRPLEPDKVFSRQGNEESRSLFHCYINEVERLDRAKACHQTTALDSDVQLQEAIRSSGQPEEELNRLMKFDIPNFVNTDQNYFGEDDLLISEPPIVLETKPLSQTSHKDLD",,1

# From paper doi:10.1101/2024.11.06.622243, “The MRAP2 accessory protein directly interacts with melanocortin-3 receptor to enhance signaling” (bioRxiv, 2024)
